Data taken from the nanobody polyreactivity screen of Harvey et al. (2022).

Assay: yeast display, Sf9 membrane polyspecificity reagent, FACS + sequencing; frameworks hold sequencing errors
How it was run: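 After 36–48 hours of galactose induction, yeast (Saccharomyces cerevisiae BJ5465) displaying a synthetic nanobody library were stained at 4 °C for 1 hour with 10% biotinylated, detergent-solubilized Sf9 membrane reagent. Streptavidin microbeads enriched the stained cells before FACS sorting into low and high (top ~1%) gates on anti-HA and streptavidin fluorescence. Each clone's polyreactivity label reflects its gate of origin.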

| Sequence | polyreactivity (PSR sort gate) |
| --- | --- |
| QVQLVESGGGLVQAGGSLRLSCAASGINNSVNDMGLYRQAPGKERELVAAISSGDSTNYADSVKGRFTISRDNAKNTVYLQMNSLKPEDTAGYYCAALEGCLTGWQTYDYWGQGTQVTVSS | low polyreactivity |
| QVQLVESGGGLVQAGGSLRLSCAASGINYVRYAMGWYRQAPGKEREFVAAITRNGGRTYYADSVKGRFTISRDNAKNTVYLQMNSLKPEDTAVYYCAAYPAYPGTLEMDYWGQGTQVTVSS | high polyreactivity |
| QVQLVESGGGLVQAGGSLRLSCAASGISFEYYAMGWYRQAPGKERELVAAITRGGSTYYADSVKGRFTISRDNAKNTVYLQMNSLKPEDTAVYYCAADRYYYEYDYWGQGTQVTVSS | low polyreactivity |
| QVQLVESGGGLVQAGGSLRLSCAASGITCSYYTIGWYRQATGKEWELVATISQSSGSTYYADSVKGRFTISRDNAKNTVYLQINTLKPEDTAVYYCKARRDYEWVSWNVVDDYWGQGTQVTVSS | high polyreactivity |
| QVQLVESGGGLVQAGGSLRLSCAASGITFAEYAMGWYRPAPGKERELVAAINGGGGSTYYADSVKGRFTISRDYAKNTVYFQMNSLKPEDTAVYYCAADGYPGDYDYWGQGTQVTVSS | high polyreactivity |
| QVQLVESGGGLVQAGGSLRLSCAASGITFAFYDMGWYRQAPGKERELVAAISYSGGGTYYADSVKGRFTISRDNAKNTVYLQMNSLKPEDTAVYYCAADPKTHALFGEDYWGQGTQVTVSS | low polyreactivity |
| QVQLVESGGGLVQAGGSLRLSCAASGITFAGYAMGSDREAPGTERELVAAITRRGGITYYADSVKGRFTISRDNAKNTVYLQMNSLKPEDTAVYYCNAGRRVSTYGYWGQGTQVTVSS | high polyreactivity |
| QVQLVESGGGLVQAGGSLRLSCAASGITFALNAMGWYRQAPGKERELVAAIRWGGDSTYYADSVKGRFTISRDNAKNTVYLQMNSLKPEDTAVYYCAAYGPRTLDYWGQGTQVTVSS | high polyreactivity |
| QVQLVESGGGLVQAGGSLRLSCAASGITFALYAMGWYRKAPGKERELVAAISYSGGRTYYADSVKGRFTISRDTAKNTVYLQMNSLKPEDTAVYYCAAGGSGSGPYGYGYWGQGTQVTVSS | high polyreactivity |
| QVQLVESGGGLVQAGGSLRLSCAASGITFASNPMGWYRQAPGKERELVAAITRGDNTYYADSVKGRFTISRDNAKNTVYLQMNSLKPEDTAVYYCATEGYQIQYEHDYWGQGTQVTVSS | low polyreactivity |
| QVQLVESGGGLVQAGGSLRLSCAASGITFASYAMGWYRQAPGKERELVAVITRSTGRTYYADSVKGRFTISRDNAKNTVYLQMNSLKPEDTAVYYCAAGYITWYDYWGQGTQVTVSS | high polyreactivity |
| QVQLVESGGGLVQAGGSLRLSCAASGITFASYVMGWYRQAPGKERELVAAISSSGGSTYYADSVKGRFTISRDNAKNTVYLQMNSLKPEDTAVYYCKARLYYSWRSTYDYWGQGTQVTVSS | high polyreactivity |
| QVQLVESGGGLVQAGGSLRLSCAASGITFATNAMGWYRQAPGKERELVAGITSGGSTYYADSVKGRFTISRDNAKNTVYLQMNSLKPEDTAVYYCAKRYHYWYGTGYDYWGQGTQVTVSS | low polyreactivity |
| QVQLVESGGGLVQAGGSLRLSCAASGITFATYAMGWYRQAPGKERELVAAISGGGGRTYYADSLKGRFTISRDNAKNTVYLQMNSLKPEDTAVYYCATAQRSSQFYHWGQGTQVTVSS | high polyreactivity |
| QVQLVESGGGLVQAGGSLRLSCAASGITFAVKAMGWSRQAPGKERELVAAISRSAGSTYYADSVKGRFTISRDNAKNTVYLQMNSLKPEDTAVYYCATALRYARSRNRFYYWGQGTQVTVST | high polyreactivity |
| QVQLVESGGGLVQAGGSLRLSCAASGITFAVYAMGWYRQAPGKERELVAAITRGGGSTYYADSVKGRFSISRDNAKNTVYLQMNSLKPEHTAVYYCNADSIPEGNSRYSHFDYWGQGTQVTVSS | low polyreactivity |
| QVQLVESGGGLVQAGGSLRLSCAASGITFAYKAMGWYRQAPGTERELVARITSGGRTYYSDSVKARFTISRDNAMNTVYLQMNSLKPEDTAVYYCNAKEGSRYRKYDYWGQGTQVTVSS | low polyreactivity |
| QVQLVESGGGLVQAGGSLRLSCAASGITFAYYAMGWSRQAPGKERELVAAIRWSGGDTYYADSVKGRFTISRDNAKNTVYLQMNSLKPEDTAVYYCAADTTWGYDYWGQGTQVTVSS | low polyreactivity |
| QVQLVESGGGLVQAGGSLRLSCAASGITFAYYAMGWYRQAPGKERELVAAITRGGSTFYADSVKGRFTISRDNAKNTVYLQMNSLKPEDTAVYYCAKRYGTNTRYYHPYRYDYWGQGTQVTVSS | high polyreactivity |
| QVQLVESGGGLVQAGGSLRLSCAASGITFAYYVMGWYRQAPGKERELVAAINGSGGSTYYADSVKGRFTISRDTAKNTVYLQMNSLKPEDTAVYYCAAEQYVYRRYPEPDWYAYNYWGQGTQVTVSS | high polyreactivity |
| QVQLVESGGGLVQAGGSLRLSCAASGITFCYYGMGRYRQAPGKERELVAAISSGGRTYYADSVKGRFTISRDNAKNTVYLQMNSLNPEDSAVYYCADRTKYIFVYQGVYWGQGTQVTVSS | high polyreactivity |
| QVQLVESGGGLVQAGGSLRLSCAASGITFDANTMGWYRQAPGKERELVAVITDTGSTNYADSVKGRFTISRDNAKNTVYLQMNSLKPEDTAVYYCNADAEPSSGTSANNDYWGQGTQVTVSS | low polyreactivity |

| Sequence | polyreactivity (PSR sort gate) |
| --- | --- |
| QVQLVESGGGLVQAGGSLRLSCAASGITFDDYDMGWYRQAPGKEREFVAAISFSGSSTYYADSVKGRFTISRDNAKNTVYLQMNSLKPEDTAVYYCNADYVYSGGRYYGKDYWFDYWGQGTQVTVSS | low polyreactivity |
| QVQLVESGGGLVQAGGSLRLSCAASGITFDEYAMGWYRQAPGKERELVAVISRSGGTTYYADSVKGRFTISRDNAKNTVYLQMNSLKPEDTAVYYCNARRWGPPGYYWGQGTQVTVSS | high polyreactivity |
| QVQLVESGGGLVQAGGSLRLSCAASGITFDGNAMGWYRQEPGKERELVAAIDFSGGSTTYADSVKGRFTISRDNAKNTVYLQMNSLKPEDTAVYYCAAVDWYGFLAVEEYYWGQGTQVTVSS | high polyreactivity |
| QVQLVESGGGLVQAGGSLRLSCAASGITFDIYNMGWYRQAPGKERELVAAISYSGGSTYYADSVKGRFTISRDNAKNTVYLQMYSLKPEDTAVYYCAAYEGTYFTEVDYWGQGTQVTVSS | low polyreactivity |
| QVQLVESGGGLVQAGGSLRLSCAASGITFDKYPMGRYRPAPGKDRELVAAISGSDGSTYYADSVKGRFTISRDNAKNSVYVQMNSLKPDDTAVYDCAAESVYAGTYEYDYWGQGTQVTVSS | low polyreactivity |
| QVQLVESGGGLVQAGGSLRLSCAASGITFDRYALGWYRPAPGKEREFVAAISWRGGSTYYADSVKGRFTISRDNAKNTVYLQMNSLKPEDTAVYYCAVGYYDHDYWYEYWGQGTQVTVSS | high polyreactivity |
| QVQLVESGGGLVQAGGSLRLSCAASGITFDRYAMGWYRQAPGKERELVAAITSGGRTYYADSVKGRFTISRDNAKNTVYLQMNSLKPEDTAVYYCNATRGQYVGRYYYWGQGTQVTVSS | high polyreactivity |
| QVQLVESGGGLVQAGGSLRLSCAASGITFDSYAMGWYRQAPGKERELVAAISYSGGSTYYADSVKGCFTISRDNAKNTVYLQMNSLKPEDTAVYYCAAASDDDYDYWGQGTQVTVSS | low polyreactivity |
| QVQLVESGGGLVQAGGSLRLSCAASGITFDSYAMGWYRQAPGKERELVATISRSGTTTYYADSVKGRFTISRDNAKNTVYLQMNSLKPEDTAVYYCNTLRAYWTYHFYGAVRDGYDYWGQGTQVTVSS | low polyreactivity |
| QVQLVESGGGLVQAGGSLRLSCAASGITFDYYAMGWYRQAPGKERELVAAISYSGGSTYYADSVKGRFTISRDNAKNTVYVQMNSLKPEDTAVYYCAAETFTISSDYYYWGQGTQVTVSS | low polyreactivity |
| QVQLVESGGGLVQAGGSLRLSCAASGITFEGYAMRWYRQAPGKERELVAAITGSGSTTYYADSVKGRFTISRDNAKNTVYLQMNSLKPEDTAVYYCAADVSYKLYWGQGTQVTVSS | low polyreactivity |
| QVQLVESGGGLVQAGGSLRLSCAASGITFEHYAMGWYREAPGKERELVAAINRSGDNTYYADSVKGRFTISRDNAKNTVYLQMNSLKPEDTAVNYCNTVELYWRGYDYWGQGTQVTVSS | high polyreactivity |
| QVQLVESGGGLVQAGGSLRLSCAASGITFEKYAMGGYRQAPGKERELVAAITSSGGSTYYADSVKGRFTISRDNAKNTVYLQMNSLKPEDTAVYYCKARYYYADRTSGGYYYWGQGTQVTVSS | high polyreactivity |
| QVQLVESGGGLVQAGGSLRLSCAASGITFEPYAMGWYRQAPGKEREFVADITWSGGSTYYADSVKGRFTISRDNAKNTVYLQMNSLKPEDTAVYYCAADGWTSYWSDYWGQGTQVTVAS | low polyreactivity |
| QVQLVESGGGLVQAGGSLRLSCAASGITFERNGKGWYRQAPGKEWELVAAIRSGGSTYYADSVKGRFTISRDNAKNTVYLQMNSLKPEDTAVYYCAAVTQGGYTYLGDYWGQGTQVTVSS | low polyreactivity |
| QVQLVESGGGLVQAGGSLRLSCAASGITFFAYAMGWYRQPPGKERELVAAISSGGSTNYADSVKGRFTISRDNAKNTVYLQMNSLKPEDTAVYYCAAVRSDLGEEGYAGYVYWGQGTQVTVSS | low polyreactivity |
| QVQLVESGGGLVQAGGSLRLSCAASGITFFENAMGWYRQAPGKERELVASISSSGGSTYYADSVKGRFTISRDNAKNTVYLQMNSLKPEDTAVYYCAARYYSQKSYIGFRPGYEYWGQGTQVTVSS | low polyreactivity |
| QVQLVESGGGLVQAGGSLRLSCAASGITFFGYAMGWYRQAPGKERELVAGISRSTGRTYYADSVMGRFTISRDNAKYTVYLQMNSLKPEDTAVYYCDARATRSLSRYMDYWGQGTQVTVSS | high polyreactivity |
| QVQLVESGGGLVQAGGSLRLSCAASGITFFRYTMGWYRQAPGKERELVAAINIRGTRTYYADSVKGRFTISRDNAKNTVYLQMNSLKPEDTAVYYCAAGYAYRYSGLSYDVDYWGQGTQVTVSS | high polyreactivity |
| QVQLVESGGGLVQAGGSLRLSCAASGITFFTYAMGWYRQAPGKEREFVATISYGGGSTYYADSVKGRFTISRDNAKNTVYLQMNSLKPEDTAVYYCNAEGYVPTYFQHYAYWGQGTQVTVSS | low polyreactivity |
| QVQLVESGGGLVQAGGSLRLSCAASGITFFYNAMGWSRQAPGKERELVADITNSGSTYYADSVKVRFTISRDNAKNTVYLQMNSLKPEDTAVYDCAAGQAYDFFVYYPDDYWGQGTQVTVSS | low polyreactivity |
